Reference: publication PMC6608618, “Structures of three ependymin-related proteins suggest their function as a hydrophobic molecule binder” (IUCrJ, 2019)

Legend:
human EPDR1 = target: T1, human EPDR1 (Homo sapiens, UniProt Q9UM22); test: fluorescence increase titration (ex […] nm, em […] nm); format: binding
T1 construct: residues 38-224 without native signal peptide; N-terminal His8 tag, cleavage not mentioned; codon-optimised synthetic gene, pAcGP67A; secreted from Sf9 insect cells; homodimer in crystal; three intramolecular disulfides
T1 sequence (Q9UM22 38-224): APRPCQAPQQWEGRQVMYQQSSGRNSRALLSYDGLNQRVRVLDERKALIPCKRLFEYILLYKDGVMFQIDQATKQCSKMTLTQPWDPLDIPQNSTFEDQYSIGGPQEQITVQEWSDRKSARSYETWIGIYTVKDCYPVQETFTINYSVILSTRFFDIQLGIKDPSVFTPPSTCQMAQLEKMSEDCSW

[1] = target: the molecule itself; test: crystal structure; human EPDR1 crystals, hanging drop 22 C, 15-20% PEG 3350 with 0.1 M citric acid pH 4.5 or 0.2 M NaCl, 0.1 M bis-Tris pH 5.5; space group P4(3), four molecules in the asymmetric unit; interfaces judged by PISA
[2] = target: the molecule itself; test: crystal structure; mouse EPDR1 crystals, hanging drop 22 C, 0.5-1.0 M lithium sulfate, 0.5-1.0 M ammonium sulfate, 0.1 M sodium citrate pH 5.6; space group P2(1), four molecules in the asymmetric unit
[3] = target: the molecule itself; test: crystal structure; frog EPDR1 crystals, hanging drop 22 C, 15-20% PEG 8000, 0.2 M calcium acetate, 0.1 M sodium cacodylate pH 6.5; space group P6(5)22, one molecule in the asymmetric unit, dimer with a crystallographic symmetry mate

O=S(=O)(O)c1cccc2cccc(Nc3ccccc3)c12 [1,8-ANS, 1-anilinonaphthalene-8-sulfonic acid]
Kd (human EPDR1): ~14 µM

B1: human EPDR1 (residues 38-224, N-terminal His8 tag) (natural protein, UniProt Q9UM22 38-224, looked up)
chain: T1 sequence (Q9UM22 38-224)
modifications: glycosylation at the two predicted Asn sites only slightly perceivable, too disordered to be modeled
notes: human EPDR1, UniProt Q9UM22, residues 38-224, without the native N-terminal signal peptide; Three intramolecular disulfide bonds (Cys42-Cys172, Cys88-Cys222, Cys113-Cys210); also called mammalian ependymin-related protein 1; MERP1; source: Sf9 insect cells (baculovirus, pAcGP67A, secreted), purified (Ni-NTA, size-exclusion chromatography)
stoichiometry N [1]: 2

B2: mouse EPDR1 (residues 38-224, N-terminal His8 tag) (natural protein, UniProt Q99M71 38-224, looked up)
chain: TPQPCQAPQQWEGRQVLYQQSSGHNNRALVSYDGLNQRVRVLDERKALIPCKRLFEYILLYKEGVMFQIEQATKQCAKIPLVESWDPLDIPQNSTFEDQYSIGGPQEQILVQEWSDRRTARSYETWIGVYTAKDCYPVQETFIRNYTVVMSTRFFDVQLGIKDPSVFTPPSTCQAAQPEKMSDGCSL
modifications: N-glycosylation at Asn130 (one NAG) and at Asn182 (two NAGs and one fucose)
notes: mouse (Mus musculus) EPDR1, UniProt Q99M71, residues 38-224, without the native N-terminal signal peptide; Three intramolecular disulfide bonds; also called MERP1; source: Sf9 insect cells (baculovirus, pAcGP67A, secreted), purified (Ni-NTA, size-exclusion chromatography)
stoichiometry N [2]: 2

B3: frog EPDR1 (Xenopus tropicalis, residues 38-220, N-terminal His8 tag) (natural protein, UniProt F6VRB7 38-220, looked up)
chain: TPCEAPLQWEGRIVLYDHNTGKNTRATVTYDAILQRIRILEEKKSFVPCKRFFEYIFLYQEAVMFQIEQVTKICSKNTLTEPWDPYDIPENSTYEDQYYIGGPGDQIPVQEWSDRKPARKYETWVGVYTVKDCYPVQETYTKNDSMTTSTRFFDIKLGISDPSVFNPPSTCEAAQPLLMSGDC
modifications: glycosylation at the two predicted Asn sites only slightly perceivable, too disordered to be modeled
notes: frog (Xenopus tropicalis) EPDR1, NCBI XP_002939463, residues 38-220, without the native N-terminal signal peptide; Three intramolecular disulfide bonds; source: Sf9 insect cells (baculovirus, pAcGP67A, secreted), purified (Ni-NTA, size-exclusion chromatography)
stoichiometry N [3]: 2
